One variant from IntAct's records for PubMed 26766587 can be followed below.

Sequences and labels used below:
B1: N-myc proto-oncogene protein (Homo sapiens), P04198 (parent)
chain: MPSCSTSTMPGMICKNPDLEFDSLQPCFYPDEDDFYFGGPDSTPPGEDIWKKFELLPTPPLSPSRGFAEHSSEPPSWVTEMLLENELWGSPAEEDAFGLGGLGGLTPNPVILQDCMWSGFSAREKLERAVSEKLQHGRGPPTAGSTAQSPGAGAASPAGRGHGGAAGAGRAGAALPAELAHPAAECVDPAVVFPFPVNKREPAPVPAAPASAPAAGPAVASGAGIAAPAGAPGVAPPRPGGRQTSGGDHKALSTSGEDTLSDSDDEDDEEEDEEEEIDVVTVEKRRSSSNTKAVTTFTITVRPKNAALGPGRAQSSELILKRCLPIHQQHNYAAPSPYVESEDAPPQKKIKSEASPRPLKSVIPPKAKSLSPRNSDSEDSERRRNHNILERQRRNDLRSSFLTLRDHVPELVKNEKAAKVVILKKATEYVHSLQAEEHQLLLEKEKLQARQQQLLKKIEHARTC
partner: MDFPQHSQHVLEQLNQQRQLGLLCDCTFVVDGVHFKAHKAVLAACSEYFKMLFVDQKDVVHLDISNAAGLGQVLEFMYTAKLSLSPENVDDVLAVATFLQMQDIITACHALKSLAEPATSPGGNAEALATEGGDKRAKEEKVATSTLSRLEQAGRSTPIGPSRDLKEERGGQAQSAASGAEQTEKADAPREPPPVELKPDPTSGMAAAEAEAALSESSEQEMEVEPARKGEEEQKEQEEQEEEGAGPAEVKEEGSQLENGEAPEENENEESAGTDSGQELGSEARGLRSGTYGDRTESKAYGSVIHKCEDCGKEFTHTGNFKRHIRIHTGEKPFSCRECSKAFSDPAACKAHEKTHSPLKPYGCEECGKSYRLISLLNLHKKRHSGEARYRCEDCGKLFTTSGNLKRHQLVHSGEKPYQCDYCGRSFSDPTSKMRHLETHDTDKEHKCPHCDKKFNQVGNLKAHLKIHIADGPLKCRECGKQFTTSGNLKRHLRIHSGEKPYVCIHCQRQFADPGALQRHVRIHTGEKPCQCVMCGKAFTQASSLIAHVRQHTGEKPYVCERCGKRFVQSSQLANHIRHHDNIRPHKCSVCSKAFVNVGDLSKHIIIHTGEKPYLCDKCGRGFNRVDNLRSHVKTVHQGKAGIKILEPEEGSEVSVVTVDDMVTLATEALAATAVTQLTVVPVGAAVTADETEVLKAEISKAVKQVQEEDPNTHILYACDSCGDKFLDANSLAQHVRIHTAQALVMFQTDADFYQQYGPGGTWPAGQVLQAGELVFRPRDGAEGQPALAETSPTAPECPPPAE

This assay covers variants of B1. The settings on record: with zbt17_human ZBTB17, Q13105.
On to V421D, for which the “effect of a mutation on the interaction” value is given as “decreasing interaction strength”.
